Series [1] relates to VV-GMCSF-Lact intact vaccinia virus particles (surface protein target not identified) (Vaccinia virus, LIVP strain (recombinant VV-GMCSF-Lact)). As to the kind of experiment: MST.
The test system is the same in series [2]. As to the kind of experiment: flow cytometry. On the technique in general: Flow cytometry measures light scatter and fluorescence of single cells or particles in a stream.

pKd: −log10 of the molar value.

Broadly, the pKd is the negative decadic logarithm of the Kd, by convention in mol/L. For “GTAACCAGCCATCACCCTATTATCTCATTATCTCGTTTTCCCTATGCGGCATAGG [NV14t_56 (8NV37_14 variant 2_12-67)]”, the K half in series [1] came out at 1.49e+09 PFU/mL. The negative logarithm of the Kd (pKd) in series [2] was 6.45.

Values taken from paper PMC10892425.
